# According to publication PMC7041689:
# B1: 6His-YPet-XCTK2-Tail (domain or fragment)
# chain: DSTDKKVQVASRLPVPPKRKYVSNDENQEQMQRKRLRSSLESELPAVRVAASIATSKPRAAPVAALPKPQVIGRQSLAVMRPKNSGPGITSTSFSGKTKVSSSVTQPAAIGAEKKKRAA
# What was measured:
# [1] = biological target: 6His-YPet-XCTK2-Tail (Xenopus) (UniProt P79955); assay: co-sedimentation
# CyPet-XCTK2 (Xenopus) = CyPet-XCTK2 (Xenopus) (UniProt P79955); assay: FRET or BRET
# YPet-XCTK2 (Xenopus) = YPet-XCTK2 (Xenopus) (UniProt P79955); assay: FRET or BRET
# microtubules = assay: co-sedimentation
molecule,measurement,setting,value
importin α-6His (natural protein),percent decrease of the amount of YPet-XCTK2-Tail bound to MTs (1× importin α/β),[1],46%
same,percent decrease of the amount of YPet-XCTK2-Tail bound to MTs (4× importin α/β),[1],53%
6His-importin α-YPet (natural protein),fold decrease of Kd with importin β against without importin β,CyPet-XCTK2 (Xenopus),5 fold
importin α-CyPet (natural protein),mean line scan CyPet lifetime (importin α-CyPet + Ran without YPet 1.68),YPet-XCTK2 (Xenopus),1.55 ns
B1,fold increase of Kd with 4× importin α/β against no importin α/β,microtubules,10 fold
